# Experimental data published in the DeepSol protein solubility set.
# Test: soluble on expression in E. coli; label from the status in PepcDB or PDB records
row,Sequence,soluble on expression in E. coli
1,MSELSFAQLLEESFAATPRLGDVVKGTVVAIQKGYVIVDTGFKSESSIPAEEFINAQGELEVQIGDQVDVVLKAVEDGFGETVVSRGDAKRNEAWIALEKAFEEQATVIGFVNGKVKGGFTVELNGVRAFLPGSLVDTRPVRDSLNLEGKELEFKVIKLDQKRNNVVVSRRAVIESENSQDRDEVLANLVEGSVITGTVKNLTDYGAFVDLGGVDGLLHITDMAWKRVKHPSEVVAVGQEVTVKVLKFDKEKTRVSLGLKQLGQDPWAAIAHNHPVNSKLTGKVTNLTDYGCFVEILDGVEGLVHVSEMDWTNKNIHPSKVVSVGDVVEVMVLEVDEERRRISLGLKQCKANPWEHFAATHNKNDKVTGKIKSITDFGIFIGLEGGIDGLVHLSDISWNVTGEEAVRNYKKGDEVEAVVLQVDAAKERISLGIKQLESDPFTNFVDSTKKGAILTGKVVDVDTKGVKVELEGGVEAFIRANEATRERVEDITTVISVGDSIEAKYTGIDRKSRLVNLSVRAKDEAEESAALAQVNKQDVEMPNAMTAAFQAAKGELEHHHHHH,soluble
2,MKGFYHHPSRTISLRNNLSERQLRSTLAHELGHAMRGDVPTSGVFAEHIERRADEFAARLLISPIEYRLAESLHDGHIGAIAYELGVTVRLVEVWRDMHDRITA,not soluble
3,MMEVRINKFLSEAGVASRRKAEKLILEGRVKVNGEVVRSLGVKVNPEVDIVEVDGKPVKPQRKRYIILNKPCCYLTQLGRSPDGRKTIEELIKDIPERVFPVGRLDYNTEGLLILTNDGELANRILHPRYKLPKVYLALVEGKVDQKTLKRMKQGIELEDGFAKPDNIRIVRYEGKNTLLEITFHEGRKHLVKRFLGAFGHKVKRLKRIAIGPIKLGKLSPGKWRELNQGELAQLFKAVGLKYVPRKRRLEHHHHHH,soluble
4,MSEKLDLTRFEKKMVIRNIEEKDIDKIIDLQKDCFPGMEPWKREHLISHLEHFPEGQFCAEFEGEIIGSCSSLLINFDEYDDRHTWQDITDDGYITNHNPDGLNMYGIEVMVHPKYRRMKIGHRLYEARKDLARRLSLKSIIIGGRIPNYHKYAEEMTAREYVEQVTRHQIYDPVLSFQLMNGFTLMRINPNYLPDDTASIKY,not soluble
5,MGIRVKRRQHQHLLESLVHSTAKQQGDFTKTAELATELLCQNLAVSLVSIWIFSADQGTQSLVAQFGSMALQDTYRPSLLHTVPRYLNELKNYRHIDAGNTLIDPRLTELVDSYFIPRQILSSLDVGIRINGHLEGVLCIERAQVTHHWHDSEIHLACQMADQLALTLATKHAYDKEERLSLFRCAIEQSRQMSMLEHHHHHH,soluble
6,MAHHHHHHMYLGSIKNFEDDFLCKGEYKQVYLSLEQNENNEAIEIDICCDNNIYDILQFCREKYGIYGEYIIDSCGNVIHSIKDIIDGDTLYLKEKKEDMNFFSKIKNNFIVNDYIVEKRIGSGGFGIVFQGVHIQTKQKVALKFIPKSNFLDVTDVHRVFIEIQTLRGLIHNNIIKMYDVNHFQNYVCLIMEYAINGDLKNYIKNKFNGFLSEKEAHDLFLQIVKGVYYCHSKHIVHRDLKLENILLDEKMTCKIADFGLSDFVNVDQNIKTEAGTKAYIAPEIIFNQTINYSVFKLDIWSLGILLFIMTQGFAPFKYMEKELKNFESNTLNYANDISDDLKDLISLMLNVDPNKRPIIVEILNHRWFENYKES,soluble
7,MGSDKIHHHHHHMWIRTHYFMAKSIHSYIKEKYKVSLQLDQLQYGSIKPDLLPKYWEGSHYYESCSGTWLAEVAQLLGEQKKRSIRNFSDKLGVILHFTADFFCSAHNLPNLRENMWEHLLYELKLDVAFRHFESFRGIQCLNYDDPYDLLTCCRQDYLSGQPSLERDIHYIYAASLSITDLLVTQALLPVAKPLMLLKDLPESS,not soluble
8,MRINEMALHEKPRERLITYGAKSLSNVELLAILLNTGRKGFSSIDIANELLKQQSTIRDLKKLSINDLLKIKGIGLYKAVILQAAFELGERINSTSTFDKVQITHPSDVASLMMSTMKDLEQEHFVVLLLNSKNIVTKQAWVYKGTLNSSIIHPREVFNIAIRESSNSIIVVHNHPSGDVTPSKEDITTTYRLKECGDILGINLLDHIIIGDNKFTSLVEAGYFDK,not soluble
9,MLPVITRFARPALMAIRPVNAMGVLRASSITKRLYHPKVIEHYTHPRNVGSLDKKLPNVGTGLVGAPACGDVMRLQIKVNDSTGVIEDVKFKTFGCGSAIASSSYMTELVQGMTLDDAAKIKNTEIAKELSLPPVKLHCSMLAEDAIKAAIKDYKSKRNTPTMLS,not soluble
10,GPGSMERYAFAEDYKNARGIPRVEYISDMATFVKNNGGADALISRLILDSSKYEHTEKRLVSSMANLDHKIPTIKKTLHALNFLKKRLQEDQTPVRSYYCLTDAVFGEAEVVPQETVHLWMGAKVMVEYTFDEALQLLEKNLANAETNLKATKEDLAWVQEQMTNLQINISRVYNYDLKNKRTNGGAAEPSA,soluble
11,AEQLRGEPWFHGKLSRREAEALLQLNGDFLVRESTTTPGQYVLTGSQSGQPKHLLLVDPEGVVRTKDHRFESVSHLISYHMDNHLPIISAGSELCLQQPVERKLLEH,soluble
12,METQKQTRRRGEKLENTILTAAWDQLNKVGYKDLTITEIASLAGTNKTTIYRRWPNKSLLVVSAFSKFVPRPKMHIPNSGNLRDDLVKLFEQLVNQLEFLTSGKFEGLLLDRLRDTSIDKVFGRVDENNALQKFIVIILQRAEKRGELKINQLSQRVLELPFLLLLNEVISTRGIVPKESLTEIVDKILLPVFLRSN,not soluble
13,MNQEKIADLKNWMHQEKIDFTYISDPGHIAYFSGYESEPHERVLALFIAADDQSFLFTPALEVEDAEKSSWTYPVYGYLDSENPWEKIAALLNKRTQGTPRFALEKQALSLARFDQLKTYFPASDFSHDVTPLIEKLQLIKTEPEIQRLLEAGSWADVAFEIGFKAIQAGVAEQEIVAEIEYQLKRQGIRSMSFDTLVLTGKNGASPHGVPGETKIEPHDLVLFDLGVVHNGYCSDATRTVSYLEPSDFQKEIYGIVLEAQLAATEAVKPGVTAGELDDIARGVITKAGYGEYFNHRLGHGIGTTVHEYPSLVHGNDLVIEEGMCFSIEPGIYIPGKVGVRIEDCLHVTKTGSEPFTKTTKELQIIQ,not soluble
14,MSRLRSTPIPGTRDSYTQVDFNLGFHVRHYDVSLDYVVAPNRLKAVVTLSMDTYQPLRSLTLDLSDALTVKSVTAQGTSAVAVRVQKFRHRNHKLRISFTEEIPVDQEFKITVTYSGNPRPIRSTWGLIGWEELSNGSLVASQPNGARSWLPCDDTPDEK,not soluble
15,MVGLADVAVLYSGGKDSNYALYWALKSGLRVRYLVSMVSENEESYMYHTPNVELTSLQARALGIPIIKGFTKGEKEKEVEDLKNVLEGLKVDGIVAGALASRYQKERIENVARELGLKVYTPAWEKDPYQYMLEIIKLGFKVVFVAVSAYGLNESWLGRELNYKNLEELKKLSEKYGIHIAGEGGEFETFVLDMPFFKAKIVIDDAEKFWDGLSGKFIIKRAHLEWK,soluble
16,ASLLARYPPEKLFQAERNFNAAQDLDVSLLEGDLVGVIKKKDPMGSQNRWLIDNGVTKGFVYSSFLKPYNPRRSHSDAS,soluble
17,MNELRDPGDAVIAIVGGGASGVLVALQLLRQAVAPVQIVVIEPHAVLGEGVAYSTARPEHLLNVPAARMSALVEAPQDFVDYLRAHACCPELEDARLPQAFVGRRHYAPYLRDRLQTARVQSPATLIVHSARVQTLHADADGALLQLDDGQTLHATSVVLAVGNALRPLPLRGATGLSATQRLEAWDTEAVAALPQDAAVCIVGSGLSMADTVVTLAAQAHRGAVHVVSRHGLLPLPQAHCVAADFDPQPLLALSLRARMRSLRQHAQVAMAQGLPWQGVMERVRPLNQVLWQTLSVADQRRFLRHVVRYWDVHRHRIAAPVHAQLQAMRARGQLQLHRARLDVAFQAGACVRLSAGASAGHALQLDVQTLVNATGVEMRVQAMRNPLLQQLLGQGIAVAGSHGIGVDTAADGCLIDAEGHANPRLRVIGSLRIGSLWESLAVPELREQAAAIARDVLALLGR,not soluble
18,MNIQALINDKVSQALEAAGAPAGSPAAVRQSAKPQFGDYQANGVMGVAKKLGTNPREFAQKVLDVLDLDGIASKTEIAGPGFINIFLSEEFLAKQADAALADSR,not soluble
19,MSLHEASIALALIDVAGDVLREHGAARASALTVRVGQWSSVVPEALAAAFPACAEGTPLAGARLSIERVPGVGECPQHGPVELEVWRGLRCPLCGAPTPRLLQGDELELDQLELDQLELENLEGHHHHHH,not soluble
20,MGSDKIHHHHHHMEQDDKKLFVLDTNVLLHEPLAIYSFKEHDVVVPMTVLEELDQIKDRKRDVSRDARVAIRALEDILGGQTTPEEIVSGVPLPKREGHGDAVGSLSIFPDHQLEFTQASLPGDNNDNRIINTALHLQNQFAPRHVVLVTKDINMRLKAKGAGINLVEDYRTDQLIDDIRFLTKGFHQFEGDFWARKEHVNTETQGRHTVHRVPVKEVGEENFYTNQYLIDEDSNFCGRVLSNNDEELEILDLGRDRLLNLDAWGIKPKNVYQGMAMQALLDPDIDLVILTGPAGCGKTLLAMAAALEMVVERGLYDKVIVTRNTPEIAESIGFLPGTEEEKMAPWLAAITDTLEVLHKHDVNPSGSMNYIMDKANIQFKSINFMRGRSIQNSVVLLDECQNLTASQIKTMITRMGEGTKLICSGNLAQIDSNYLTAVTSGLTYIVERFKNFDGSANIYLNGVVRSRLAEFAEENL,not soluble
21,MNFYSLSVFIALVFSFNAADGHRCHRRGNGGFSKIFDKSTIQKIVPFFLIKIQNQNKNNIF,not soluble
22,MGSDKIHHHHHHMRCSPCRMQQAHTPPHSAKSIKHDVKRRIILDAARRMFAHDGAGSVSMRNLAREVGCSAAVLYRYFGSRESILWELRCEGIVLLNDALMGAADAADPLLRLQQLGRAYVSFGIDNLEYYELMFRTPFYEFDAGSLPDGLPDDALVLLHSTAAECLELGYFAGSDVTTVVSSMWSLVHGLVSLILNGRAPLMMGALDTHAMIDRVPDFIAGLARAARGGI,not soluble
23,MKKTPLYEAHLRLGARMVDFAGYLLPLQYTSIVEEHLAVRRAVGVFDVSHMGEFLVRGKEALAFLQWATANDAGKLKVGRAQYSMLPNERGGVVDDIYLYRLGEEEYLMVVNAANIAKDLAHLQALAKGFRVELEDASERTALLALQGPKAASLLQGLTDLDLSQKRKNDVFPARVAGRPARLARTGYTGEDGFELFLAPEDAEPVFLALVEAGAKPAGLGARDSLRLEAGFPLYGHELTEETNPLCTPWAWVVKKEKAFLGKEAMLAQACRERLVGLVLEGGIPREGYRVLSGGRPVGRVTSGGYSPLLQRGIALAYVEEGAEGPFQVEVRGRAVPAALSPLPFVPLK,soluble
24,MKPHALIGLLAGMLLSSSLYAADSTKPLPLHIGGRVLVESPANQPVSYTYSWPAVYFETAFKGQSLTLKFDDDQNIFRLIVDDKAPVVINKPGKVDYPVESLAPGKHRVRLEKLTETQSTSGRFLGFYTDPSAKPLALPKRKRQIEFIGDSFTVGYGNTSPSRECTDEELFKTTNSQMAFGPLTAKAFDADYQINASSGFGIVRNYNGTSPDKSLLSLYPYTLNNPDQLYHNKHWKPQVIVIGLGTNDFSTALNDNERWKTREALHADYVANYVKFVKQLHSNNARAQFILMNSDQSNGEIAEQVGKVVAQLKGGGLHQVEQIVFKGLDYSGCHWHPSANDDQLLANLLITHLQQKKGIWLEHHHH,soluble
25,MAHHHHHHMESPRQEPLPQQPSELNTNAAAVLSTTTTESYVYTCRMCRHVLFMHHEILPHYPEPVGSGNKGFKYRGGGHASSQQQQGLHAAQEGGDVCTSYFLDPDISPWVAEESREVHQVSGGLDVMPDTIYCPNRKCNAKIGTQSWVGSQCSCGAWVTPAFKIHSRVVDKMPVAQ,not soluble
